Test results published in patent US20240336672A1.

Key:
Conditions in all cases: remark: other sources report otherwise
[1] = molecular target: T1, SARS-CoV-2 Spike ectodomain (tri-S), Wuhan (SARS-CoV-2), P0DTC2; assay: tri-S-ACE2 competition ELISA; unit from legend paragraph 348
[2] = molecular target: SARS-CoV-2 RBD (B.1.351) domain (SARS-CoV-2); assay: ELISA; unit from paragraph 452, none printed in the heatmap
[3] = molecular target: SARS-CoV-2 RBD (P.1) domain (SARS-CoV-2); assay: ELISA
[4] = molecular target: SARS-CoV-2 RBD (B.1.1.7) domain (SARS-CoV-2); assay: ELISA
[5] = molecular target: SARS-CoV-2 RBD (B.1.351) domain (SARS-CoV-2); assay: ELISA
[6] = molecular target: T1, SARS-CoV-2 Spike ectodomain (tri-S), …; assay: ELISA

Row | Binder | IC50 [1] [µg/mL] | EC50 [2] [ng/mL] | OD405nm [3] | OD405nm [4] | OD405nm [5] | OD405nm [6]
1 | Adintrevimab (antibody, V domains shown) VH: EVQLVESGGGLVKPGGSLRLSCAASGFTFSSYYMNWVRQAPGKGLEWVSSISEDGYSTYYPDSLKGRFTISRDSAKNSLYLQMNSLRADDTAVYYCARDFSGHTAWAGTGFEYWGQGTLVTVSS VL: QSVLTQPPSVSGAPGQRITISCTGSSSNIGAGYDVHWYQQLPGTAPKLLIYGSSSRNSGVPDRFSGSKSGTSASLAITGLQAEDEADYYCQSYDSSLSVLYTFGTGTKVTVL | 0.2 | 7 | 3.4 | 3.4 | 3.4 | 3
2 | Cilgavimab (antibody, V domains shown) VH: EVQLVESGGGLVKPGGSLRLSCAASGFTFRDVWMSWVRQAPGKGLEWVGRIKSKIDGGTTDYAAPVKGRFTISRDDSKNTLYLQMNSLKTEDTAVYYCTTAGSYYYDTVGPGLPEGKFDYWGQGTLVTVSS VL: not shown |  | 7 |  |  | 3.3 | 
